Measurements taken from doi:10.1101/545921 (bioRxiv, 2019).

B1: Glycolytic glyceraldehyde-3-phosphate dehydrogenase of Arabidopsis thaliana (AtGAPC1), native / reduced (enzyme, UniProt P25858 1-338, looked up)
chain: MADKKIRIGINGFGRIGRLVARVVLQRDDVELVAVNDPFITTEYMTYMFKYDSVHGQWKHNELKIKDEKTLLFGEKPVTVFGIRNPEDIPWAEAGADYVVESTGVFTDKDKAAAHLKGGAKKVVISAPSKDAPMFVVGVNEHEYKSDLDIVSNASCTTNCLAPLAKVINDRFGIVEGLMTTVHSITATQKTVDGPSMKDWRGGRAASFNIIPSSTGAAKAVGKVLPALNGKLTGMSFRVPTVDVSVVDLTVRLEKAATYDEIKKAIKEESEGKLKGILGYTEDDVVSTDFVGDNRSSIFDAKAGIALSDKFVKLVSWYDNEWGYSSRVVDLIVHMSKA
B2: IAM-pretreated AtGAPC1 WT (WT-IAM) (enzyme, Arabidopsis thaliana, UniProt P25858 1-338, looked up)
chain: B1 chain
modifications: Cys149 alkylated by iodoacetamide (IAM)
B3: H2O2-oxidized AtGAPC1 (AtGAPC1-SO2H) (enzyme, Arabidopsis thaliana, UniProt P25858 1-338, looked up)
chain: B1 chain
modifications: sulfinic acid or sulfinate (-SO2H or -SO2-) at Cys149

Biological target: the molecule itself
Assay: dynamic light scattering

Row | Protein | stoichiometry N
1 | B1 | 4
2 | B2 | 4
3 | B3 | 4
